Results as given in patent publication US20160017348A1 (published 2016).

B1: SHH1 SAWADEE domain (residues 125-258) (other)
chain: ADLAFEAKSARDYAWYDVSSFLTYRVLRTGELEVRVRFSGFDNRHDEWVNVKTSVRERSIPVEPSECGRVNVGDLLLCFQEREDQALYCDGHVLNIKRGIHDHARCNCVFLVRYELDNTEESLGLERICRRPEE
B2: SAWADEE domain (other)
chain: B1 chain

Experiments:
H3(1-15)K9me2 peptide [1] = target: T1, H3(1-15)K9me2 peptide (UniProt P59226 2-16, dimethyl-lysine at K9); test: ITC; FIG. 3B
T1 peptide: ARTKQTARKSTGGKA

H3(1-15)K9me2 peptide [2] = target: T1, H3(1-15)K9me2 peptide; test: ITC; FIG. 3A
H4K20me2 = test: ITC; FIG. 3B
H3K4me2 = test: ITC; FIG. 3B

Binder	Kd (H3(1-15)K9me2 peptide [1]) [nM]	Kd (H3(1-15)K9me2 peptide [2]) [nM]	Kd (H4K20me2) [µM]	Kd (H3K4me2) [µM]
B1	1900	1900		
B2			80.6	52.1
